One molecule from article PMC4104448 can be followed below.

For the experiment, the target named is T1, Biotinylated human β-glucocerebrosidase (residues 40A-536R) (human).
T1 sequence (P04062 whole entry, looked up): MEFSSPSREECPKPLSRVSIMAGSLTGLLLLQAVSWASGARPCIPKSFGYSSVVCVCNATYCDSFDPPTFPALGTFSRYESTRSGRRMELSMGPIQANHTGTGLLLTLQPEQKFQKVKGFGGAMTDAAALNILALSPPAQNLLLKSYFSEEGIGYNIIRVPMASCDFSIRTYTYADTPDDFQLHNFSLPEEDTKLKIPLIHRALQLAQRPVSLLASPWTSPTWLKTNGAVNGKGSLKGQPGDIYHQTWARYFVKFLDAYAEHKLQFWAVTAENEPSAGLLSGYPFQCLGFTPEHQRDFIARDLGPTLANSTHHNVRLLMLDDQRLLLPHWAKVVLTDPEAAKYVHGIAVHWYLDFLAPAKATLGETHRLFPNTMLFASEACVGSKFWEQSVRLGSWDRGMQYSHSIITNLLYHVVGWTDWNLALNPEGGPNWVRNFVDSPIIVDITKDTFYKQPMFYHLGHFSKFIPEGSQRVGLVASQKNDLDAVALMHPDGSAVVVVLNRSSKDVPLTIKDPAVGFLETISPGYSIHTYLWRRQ
The experiment can be described thus: SPR; equilibrium binding; about 1,000 RU of biotinylated ligand on a streptavidin-coupled CM5 chip, LIMP-2 as analyte; Biacore T100, 25 °C, 10 mM HEPES pH 7.5, 150 mM NaCl, 0.005% Tween 20; one-site saturation binding model.

B1: Human LIMP-2 luminal domain (residues 28-431) produced from HEK293S (GnTI-) cells, with limited glycosylation (domain or fragment)
chain: VFQKAVDQSIEKKIVLRNGTEAFDSWEKPPLPVYTQFYFFNVTNPEEILRGETPRVEEVGPYTYRELRNKANIQFGDNGTTISAVSNKAYVFERDQSVGDPKIDLIRTLNIPVLTVIEWSQVHFLREIIEAMLKAYQQKLFVTHTVDELLWGYKDEILSLIHVFRPDISPYFGLFYEKNGTNDGDYVFLTGEDSYLNFTKIVEWNGKTSLDWWITDKCNMINGTDGDSFHPLITKDEVLYVFPSDFCRSVYITFSDYESVQGLPAFRYKVPAEILANTSDNAGFCIPEGNCLGSGVLNVSICKNGAPIIMSFPHFYQADERFVSAIEGMHPNQEDHETFVDINPLTGIILKAAKRFQINIYVKKLDDFVETGDIRTMVFPVMYLNESVHIDKETASRLKSMINT
modifications: N-linked P-Man9GlcNAc2 (with terminal mannose 6-phosphate) at N325; sugars on all nine N-linked glycosylation sites, limited processing
On to B1, for which the Kd (usually the free concentration of one partner at which half of the binding sites on the other are occupied at equilibrium, for simple one-to-one binding) worked out at 1400 nM.
